The series concerns the molecule itself. Briefly: cryo-EM structure.

B1: FljK T103C N130S, straightened flagellar filament (natural protein, C. crescentus, UniProt P18913 1-273, looked up)
chain: MALNSINTNAGAMIALQNLNGTNSELTTVQQRINTGKKIASAKDNGAIWATAKNQSATAASMNAVKDSLQRGQSTIDVALAAGDTITDLLGKMKEKALAASDCSLNTASFNALKSDFDSLRDQIEKAATSAKFNGVSIADGSTTKLTFLANSDGSGFTVNAKTISLAGIGLTTTSTFTTAAAAKTMIGTIDTALQTATNKLASLGTSSVGLDTHLTFVGKLQDSLDAGVGNLVDADLAKESAKLQSLQTKQQLGVQALSIANQSSSSILSLFR
modifications: post-translational modifications on conserved surface threonine residues, likely O-linked glycans (positions not given)
B1: the binding result was “binds”.

Source of the values: paper doi:10.1101/2020.07.27.223248 (bioRxiv, 2020).
